The values that follow come from the supplement of paper PMC12764529.

± gives the half width of the 95% confidence interval.

Series [1] is described as follows: folding stability dG unfold from trypsin proteolysis; higher = more stable. The gist of the method: (§1)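 Only designs with AlphaFold2 dimer inter-PAE above 15 were retained; each was a mini-protein under 80 residues with no cysteine, in a PA-tagged cDNA display construct. After digestion with trypsin and chymotrypsin and sequencing, K50 was inferred by Bayesian fitting of counts, and unfolding free energy was derived per protease or combined against a sequence-predicted unfolded-state K50 and a shared folded-state K50.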

A short description of series [2]: folding stability dG unfold from chymotrypsin proteolysis; higher = more stable. The method, boiled down:
as §1

A short description of series [3]: folding stability dG unfold (combined trypsin and chymotrypsin); higher = more stable. The gist of the method:
as §1

Consider “SAGSMRTRKYEVERGEDEIVFPLPDGKVLRLPPDVGATVEVEYDPDGPPVRVTVRFPDGADYVLPYEELSAG [r5_45_JUSTAS]”, for which the “folding stability dG unfold” value in series [1] was -0.531 ± 0.45 kcal/mol; in series [2], 1.11 ± 0.15 kcal/mol; in series [3], 0.69 ± 0.15 kcal/mol.
In the case of “SAGSPATLRAQAEEEARALAAELGAEVTVDVTVEPVPGEYVVRTTATLTFPGGEVRTLPRTTRVPRSLVSAG [r5_609_JUSTAS]”, the “folding stability dG unfold” value in series [1] stood at 0.671 ± 0.071 kcal/mol; in series [2] it was 1.09 ± 0.08 kcal/mol; in series [3] it was 0.953 ± 0.08 kcal/mol.
Consider “SAGSPEELAEKIAEELAAEYEKKNPDKKPVKIEVKEVVVDPEGGSVTIKIKFYDPDGKPLAEPVITVESAGG [r19_53_JUSTAS]”, for which the “folding stability dG unfold” value in series [1] was determined as 1.74 ± 0.17 kcal/mol; in series [2], 1.85 ± 0.13 kcal/mol; in series [3], 1.76 ± 0.21 kcal/mol.
With “SAGSPSIVRTPSLTYDPDPRNPSTPRLRQASVTATNPNGETITFTFTSLEDMDAALNAWIAANPELLSSAGG [r19_123_JUSTAS]”, the “folding stability dG unfold” value in series [1] stood at 0.59 ± 0.11 kcal/mol; in series [2] it was 1.74 ± 0.089 kcal/mol; in series [3], 1.38 ± 0.08 kcal/mol.
Taken in the same sequence, the figures for “SAGSPVTLELRVTRPRADAATGAPATATETVTVTLPAAVVAAGLSPEEIARLLEAANPGATVELTAVASAGG [r19_110_JUSTAS]” were 0.844 ± 0.052 kcal/mol, 0.259 ± 0.14 kcal/mol and 0.582 ± 0.07 kcal/mol.
For “SAGSRILERLREEGLTITKVTSVEKGPGYERIEVETALPDGTTGKVKVTRDPADPDKIEVELEFTPAEVSAG [r5_683_JUSTAS]”, in that order: 0.797 ± 0.022 kcal/mol, 1.71 ± 0.023 kcal/mol and 1.38 ± 0.052 kcal/mol.
For “SAGSRTVTLTFYRPLSRPPGGAPVVREAERTVTLNLPDDTLSEEEIEALAEELRAEHPDVEVEITIDDSAGG [r19_369_JUSTAS]”, in that order: 0.664 ± 0.049 kcal/mol, 1.41 ± 0.092 kcal/mol and 1.18 ± 0.17 kcal/mol.
On to “SAGSSETYSFKSPEEAKKKLKEEYGVSVEELPGNRVRINLVLDNKPVVVLIDTSTNLATVVSPEVVERKSAG [r14_402_JUSTAS]”, for which the “folding stability dG unfold” value in series [1] is -0.219 ± 0.21 kcal/mol; in series [2], -0.291 ± 0.8 kcal/mol; in series [3] it was -0.257 ± 0.23 kcal/mol.
In the case of “SAGSSISSISRSPVSTEEDPSTNVRRTTYLEKYPGPPNLLKEVTVTTTFAPDGTPTVTPAVTTLSPALLSAG [r5_48_JUSTAS]”, the results for the “folding stability dG unfold” value in series [1], in series [2] and in series [3] were -0.817 ± 0.26 kcal/mol, -0.899 ± 0.68 kcal/mol and -0.717 ± 0.17 kcal/mol, respectively.
Regarding “SAGSSLRLELDLEVTLYAPVVSVRPDGSLSLVPGSTRPIPVRLRVTFELTLDPDNPLNVSINVDIEADFSAG [r14_274_TrMRF]”, the “folding stability dG unfold” value in series [1] was 4.1 ± 0.076 kcal/mol; in series [2], 5.9 ± 0.081 kcal/mol; in series [3] it was more than 6 kcal/mol.
In the case of “SAGSSLTTTSTTTFPGTVRVTTKTPDGKTFTLTVSVSTVPTPDGRVVPSVTTTMDPAARSSNVSPEVDRSAG [r5_462_JUSTAS]”, the “folding stability dG unfold” value in series [1] was -0.463 ± 0.17 kcal/mol; in series [2], -0.0322 ± 0.075 kcal/mol; in series [3], -0.144 ± 0.086 kcal/mol.
Taken in the same sequence, the figures for “SAGSVTTITDPAGTTTEIQPLPDGSLLTTTTTHTTNPATGGATTTTTTTLVSPVPGQPSTTTSTTTTPASAG [r5_424_JUSTAS]” were 1.58 ± 0.039 kcal/mol, 0.195 ± 0.027 kcal/mol and 1 ± 0.051 kcal/mol.
For “SAGSWIDKLPPSFTSSSPLAKRPDGTRVYAYEYTTESSPSILLVEFDASGRLRKIEKLDPETAAKAIAASAG [r5_73_JUSTAS]”, in that order: 1.19 ± 0.031 kcal/mol, 1.14 ± 0.071 kcal/mol and 1.22 ± 0.11 kcal/mol.
With “SAGSYKLVVKAKAPKGPARIRVFVRLPGGEEKPVAEAEVGSGEVADIEITFPSGKPIDPKNIRVEIVPPSAG [r5_287_TrMRF]”, the “folding stability dG unfold” value worked out at 1.88 ± 0.03 kcal/mol in series [1], 1.65 ± 0.066 kcal/mol in series [2] and 1.8 ± 0.058 kcal/mol in series [3].
On to “SAGTIRGLPAEFAKRIANELAQNGYEIVAVTVTYDPPNGTFKIEVEMRPPNGKVREHDIEIQVRLPPDDSAG [r5_985_TrROS]”, for which the “folding stability dG unfold” value is 1.72 ± 0.057 kcal/mol in series [1], 2.7 ± 0.092 kcal/mol in series [2] and 2.45 ± 0.17 kcal/mol in series [3].
In the case of “SAGTIWIPVDELKELGIPPGDTAEEFKQQISDRLMEQGWTVKIPDIEVEPLDPNDGRVWVRINIEFKPPSAG [r5_23_TrROS]”, the “folding stability dG unfold” value in series [1] turned out to be 1.26 ± 0.05 kcal/mol; in series [2], 0.42 ± 0.2 kcal/mol; in series [3] it was 0.94 ± 0.17 kcal/mol.
For the sequence “SAGTREQVKAIAREIANEIWDTFPDMRGQKFKVKIKVEPEPNGWVRVKVTIQFPGGVQYTFPIWIPVESAGG [r19_194_TrROS]”, the figures for the “folding stability dG unfold” value in series [1], in series [2] and in series [3] were 3.06 ± 0.11 kcal/mol, 4.4 ± 0.23 kcal/mol and 4.05 ± 0.23 kcal/mol, respectively.
Taken in the same sequence, the figures for “SAGVEELFRRLGAEVSVTRRPDGSLVVTFRLPDGRTIVVFVTPDGVRVVVVDPSGERRTLSLEDLKRLASAG [r14_578_TrMRF]” were 3.38 ± 0.059 kcal/mol, 4.098 ± 0.035 kcal/mol and 3.83 ± 0.058 kcal/mol.
In the case of “SAGVKPTPSGKNILEIDPETGKIRFVNNNGELFELPTGNDSLDAAIKEAVEKLGYPPDTPFNIDEIKIGSAG [r5_923_TrMRF]”, the “folding stability dG unfold” value in series [1] was 1.46 ± 0.044 kcal/mol; in series [2] it was 1.76 ± 0.065 kcal/mol; in series [3] it was 1.54 ± 0.19 kcal/mol.
“SAGWIIKIYFPDKKKEIMISRFPDGQWWMVQVHDKKGEPRQTIPAGMPVDELLKDFPDAKVEVYPFEPPSAG [r5_314_TrROS]”: the “folding stability dG unfold” value in series [1] was found to be 1.55 ± 0.039 kcal/mol; in series [2], 2.59 ± 0.051 kcal/mol; in series [3], 2.21 ± 0.086 kcal/mol.
Take “SAGWKIKLENIEFFPNGRIRVMFEIEDPNGRPWRVQAQFDPDNPGKIKIKVENPDNGQEQEITFTIKPPSAG [r5_345_TrROS]”: the figures for the “folding stability dG unfold” value in series [1], in series [2] and in series [3] were 3.15 ± 0.18 kcal/mol, 4.13 ± 0.1 kcal/mol and 3.83 ± 0.24 kcal/mol, respectively.
Taken in the same sequence, the figures for “SAGWQTIDFPIPPGEDIPIPIGNRPLRIQVDPNKNKYEIFNPFLGYRISIDVDPGAGWIKITIEPLKPPSAG [r5_302_TrROS]” were 3.34 ± 0.13 kcal/mol, 4.5 ± 0.15 kcal/mol and 3.98 ± 0.26 kcal/mol.
Regarding “SAGYIIGYPIIEELFNAGKPEEIRKILKEAVEKDPDKIIIIEVPENPEIAKAIEEAFKEEGIPLIIIPESAG [r14_236_TrMRF]”, the entries for the “folding stability dG unfold” value in series [1], in series [2] and in series [3] were 1.02 ± 0.035 kcal/mol, 0.81 ± 0.1 kcal/mol and 0.929 ± 0.065 kcal/mol, respectively.
As to “SAGYWEFEIELPNGRKIEIEWQRMNGRYWFKIEVLDDNGKPVREVPIPFPNPEMPFEQMIKNAVKKILDSAG [r5_630_TrROS]”, the entries for the “folding stability dG unfold” value in series [1], in series [2] and in series [3] were 2.44 ± 0.047 kcal/mol, 3.898 ± 0.032 kcal/mol and 3.41 ± 0.15 kcal/mol, respectively.
Turning to “SAHTWEIWFPPGLTPEEIQEKLKEEFPGYEIDVDVERDPEPGWYRIEVTMKDPQQRRRVQKKIREILQESAG [r14_443_TrROS]”, the “folding stability dG unfold” value in series [1] was found to be 2.34 ± 0.12 kcal/mol; in series [2], 2.39 ± 0.048 kcal/mol; in series [3], 2.4 ± 0.14 kcal/mol.
Taken in the same sequence, the figures for “SAIEIYIYPDNWMISIEPPNPNGPEKEIMIPIDKDDLKNPEFLKEIADEIMENGIPVEADIMPPGQPIPSAG [r14_60_TrROS]” were 0.857 ± 0.27 kcal/mol, -0.0516 ± 0.13 kcal/mol and 0.307 ± 0.38 kcal/mol.
Taken in the same sequence, the figures for “SAIVIPIRVQMPPNDPDALEQAKEIADYIADMMMEEGYPFKIEVDDIEWERNPNGHWTVEIPIKIKPPPSAG [r14_48_TrROS]” were 1.45 ± 0.18 kcal/mol, 1.25 ± 0.083 kcal/mol and 1.38 ± 0.15 kcal/mol.
On to “SAKEPVYLVRIRVEIYKDGKPVKELEIEVEVEEGETLEEVLERLREELEKKGYKIVKVEIEVRKLPPPESAG [r14_979_TrROS_Hall]”, for which the “folding stability dG unfold” value turned out to be 3.35 ± 0.13 kcal/mol in series [1], 5.04 ± 0.15 kcal/mol in series [2] and 4.72 ± 0.19 kcal/mol in series [3].
“SAKGTLELTFPTTKVTVEVEKVDPVNNKVYARAVFPNGFVVDAVFDPKTGKVYVEVKEVKPTKDGGYSLSAG [r14_466_TrMRF]”: the “folding stability dG unfold” value in series [1] was found to be 1.24 ± 0.046 kcal/mol; in series [2] it was 1.46 ± 0.11 kcal/mol; in series [3] it was 1.44 ± 0.15 kcal/mol.
Regarding “SAKIEINPEGGQIEMDYELNGKKVKITIQMPPENGMFPVKIEPPDLGKPIEVPYPFNSVDDMLDWAAEASAG [r14_803_TrROS]”, the “folding stability dG unfold” value was 0.488 ± 0.11 kcal/mol in series [1], 0.74 ± 0.13 kcal/mol in series [2] and 0.433 ± 0.36 kcal/mol in series [3].
On to “SAKIKIEKKEDGTIVIEVEAESEEEAEEAVKELVKELEKKGIKVEVVEVKIEKDPEKKGKYRVTIVIKKSAG [r14_119_TrROS_Hall]”, for which the results for the “folding stability dG unfold” value in series [1], in series [2] and in series [3] were 2.69 ± 0.21 kcal/mol, 4.39 ± 0.18 kcal/mol and 3.76 ± 0.33 kcal/mol, respectively.
In the case of “SAKIVIIPLGDKAIIIITDENGKTKTIELPGISKIEIKGDHLKIYDPKTGKLIIPPNWKGKDIIIIPGKSAG [r14_83_TrMRF]”, the “folding stability dG unfold” value was found to be 2.25 ± 0.22 kcal/mol in series [1], 3.32 ± 0.59 kcal/mol in series [2] and 2.9 ± 0.34 kcal/mol in series [3].
As for “SAKKENSVPVTIEIELEFDSIEKAKKAIEKLAAEIEKETGAKIEIKVEIEEKENNYIVKVELTIYLPKESAG [r14_626_TrMRF]”, the figures for the “folding stability dG unfold” value in series [1], in series [2] and in series [3] were 1.6 ± 0.06 kcal/mol, 1.55 ± 0.051 kcal/mol and 1.64 ± 0.077 kcal/mol, respectively.
For “SAKKIKIKEITITVEKNKDGSYTITITVDGKKIAELTFKTPEEAEKAAEELAKELAKKLNVDKIEIKPTSAG [r14_791_TrROS_Hall]”, in that order: 1.5 ± 0.18 kcal/mol, 2.69 ± 0.25 kcal/mol and 2.09 ± 0.22 kcal/mol.
For “SAKKKKVKKKEIKVTLKLKLPGAKIKSVKVEKKGDKLVITVEIELENGEKLKLTAVFDKDGKIVKIELESAG [r14_719_TrROS_Hall]”, in that order: 1.11 ± 0.11 kcal/mol, 1.96 ± 0.061 kcal/mol and 1.74 ± 0.38 kcal/mol.
Taken in the same sequence, the figures for “SAKKPKKVIEVTIVLPLEELKNMSLEELLKKILEELGIKEGEKVKIEVKLEEVEIDGKKYLVITVRIELSAG [r14_334_TrROS_Hall]” were 2.87 ± 0.13 kcal/mol, 2.69 ± 0.11 kcal/mol and 2.69 ± 0.15 kcal/mol.
